Source: patent US20240390468A1, “SURVIVIN AND MAGE-A9 DUAL-TARGETED IMMUNOTHERAPY” (IMMUNOVACCINE TECHNOLOGIES INC., priority 2022, published 2024)

How the values were obtained:
Details in all cases: remark: other sources report otherwise
[1] = target: MHC class 1 allele A*02:01; experiment: REVEAL on-rate assay, HLA-A*02:01
[2] = target: MHC class 1 allele A*02:01; experiment: REVEAL peptide-MHC binding assay, HLA-A*02:01
[3] = target: MHC class 1 allele A*02:01; experiment: REVEAL off-rate assay, HLA-A*02:01
[4] = target: MHC class 1 allele A*02:01; experiment: REVEAL R-score, HLA-A*02:01
[5] = target: MHC class 1 allele A*02:01; experiment: REVEAL kinetic score, HLA-A*02:01

## STFKNWPFL [SurA24 (survivin peptide antigen HLA-A24, …)]
[1]
  On-rate T1/2: 31.5 h
[2]
  REVEAL score: 61.9
[3]
  Off-rate T1/2: 7.2 min
[4]
  R-score: 0
[5]
  Kinetic score: 0
